Data on 36 sequences can be found in the supplement of paper PMC10567573.

± gives the standard deviation.

The nature of this data set: protein stability index of a GFP-peptide fusion (GPS, HEK-293T) (PSI 1-6); higher = more stable. The following applies: c terminus: a fixed tail appended.
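Also: 24-mer peptide tiles fused after GFP, lentivirally expressed, FACS-sorted into six equal bins by GFP/DsRed ratio, decoded by Illumina sequencing, PSI is the read-weighted mean bin number.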

For the sequence QIYHCTKRKEEECSTTDHPYKKPY [TBX5], the protein stability index reads like this: (treatment: DMSO) 3.92 ± 0.095; (treatment: MLN4924 1 uM, 8 h) 4.25 ± 0.26.

QKGLGGAMVWALDLDDFAGFSCNQ [CHIT1]: the protein stability index by setting is: (treatment: DMSO) 2.31 ± 0.32; (treatment: MLN4924 1 uM, 8 h) 2.42 ± 0.16.

Turning to QKSVTRSCLLEEEEESGEEAAEAM [POP5], the protein stability index by setting is: (treatment: DMSO) 5.37 ± 0.42; (treatment: MLN4924 1 uM, 8 h) 5.47 ± 0.27.

With QLDSRYWRITNAKGDVEEVQGPGV [FBXO3], the protein stability index is, setting by setting: (treatment: DMSO) 4.14 ± 0.22; (treatment: MLN4924 1 uM, 8 h) 4.22 ± 0.14.

On to QLEVTCTPYLKETLNSIWNVEDHI [POMT2], for which the protein stability index reads like this: (treatment: DMSO) 2.51 ± 0.32; (treatment: MLN4924 1 uM, 8 h) 2.44 ± 0.34.

Turning to QLLEDAILIIQGVLSDINLKKGES [NET1], the protein stability index (treatment: DMSO) came to 3.37 ± 0.24 and the protein stability index (treatment: MLN4924 1 uM, 8 h) is 3.77 ± 0.19.

Regarding QLLTLRELEMIGFIENNVSKLSLL [TRIP13], the protein stability index worked out at 2.51 ± 0.28 (treatment: DMSO) and 2.66 ± 0.52 (treatment: MLN4924 1 uM, 8 h).

Take QLRSDVCTPGGTTIYGLHALEQGG [PYCR3]: the protein stability index stood at 3.69 ± 0.23 (treatment: DMSO) and 3.61 ± 0.51 (treatment: MLN4924 1 uM, 8 h).

With QLSMLPHLADLVSYSIQKVIGFAK [VDR], the protein stability index runs as follows: (treatment: DMSO) 2.28 ± 0.2; (treatment: MLN4924 1 uM, 8 h) 2.48 ± 0.5.

Sequence QLSPNKHFSLRVQSRANGVKYPEL [PCDHGA10] yielded a protein stability index (treatment: DMSO) of 3 ± 0.18 and a protein stability index (treatment: MLN4924 1 uM, 8 h) of 3.02 ± 0.23.

QNEEYLLTYINEDRISTTFRLTTL [PLK2]: the protein stability index reads like this: (treatment: DMSO) 2.6 ± 0.37; (treatment: MLN4924 1 uM, 8 h) 2.29 ± 0.58.

For the sequence QNQEYKMLLDIKTRLEQEIATYRS [KRT15], the protein stability index came to 3.31 ± 0.18 (treatment: DMSO) and 3.46 ± 0.37 (treatment: MLN4924 1 uM, 8 h).

Turning to QPCFFQDISMEIPQEFQKTVSTMY [SCAMP3], the protein stability index is, setting by setting: (treatment: DMSO) 2.55 ± 0.4; (treatment: MLN4924 1 uM, 8 h) 2.64 ± 0.23.

Consider QPGPSGAPAQRATRGFLRSPSSDL [RETREG3], for which the protein stability index is, setting by setting: (treatment: DMSO) 3.97 ± 0.24; (treatment: MLN4924 1 uM, 8 h) 4.27 ± 0.23.

Turning to QPGTNCALAIKVNLCGHWYYSKAC [ADAMTSL2], the protein stability index runs as follows: (treatment: DMSO) 2.7 ± 0.72; (treatment: MLN4924 1 uM, 8 h) 2.75 ± 0.45.

On to QPKEKIQAIIESCSRQFPEFQERA [NOL4L], for which the protein stability index turned out to be 3.7 ± 0.36 (treatment: DMSO) and 3.85 ± 0.1 (treatment: MLN4924 1 uM, 8 h).

For QPLEGGTPNSAGGPGAHILRRKSP [ADAMTS4], the protein stability index runs as follows: (treatment: DMSO) 5.34 ± 0.43; (treatment: MLN4924 1 uM, 8 h) 5.37 ± 0.17.

For QPPNAEEESGSSSASEEEDTKPKP [INTS3], the protein stability index stood at 5.72 ± 0.23 (treatment: DMSO) and 5.65 ± 0.21 (treatment: MLN4924 1 uM, 8 h).

On to QPRKGGADWLGLKDEDLDLFPASP [FBF1], for which the protein stability index worked out at 4.71 ± 0.1 (treatment: DMSO) and 4.79 ± 0.17 (treatment: MLN4924 1 uM, 8 h).

For QQQVKTNGAGVTVLRREISELRTK [FBXO28], the protein stability index is, setting by setting: (treatment: DMSO) 4.32 ± 0.19; (treatment: MLN4924 1 uM, 8 h) 4.44 ± 0.32.

QRAEMLPKTSGTRATSLGRPEEEE [CPOX]: the protein stability index is, setting by setting: (treatment: DMSO) 5.47 ± 0.37; (treatment: MLN4924 1 uM, 8 h) 5.49 ± 0.28.

In turn, QRAFSIQTPEQYYFCYKAILEFAE [PTPN9] showed a protein stability index (treatment: DMSO) of 2.16 ± 0.29 and a protein stability index (treatment: MLN4924 1 uM, 8 h) of 2.16 ± 0.35.

For QRELHSHVTNAMVLVNVLQAIYVI [DHCR7], the protein stability index runs as follows: (treatment: DMSO) 2.61 ± 0.59; (treatment: MLN4924 1 uM, 8 h) 2.78 ± 0.61.

In turn, QRLIKKVQEAVLDKWVNDPHRMDR [GOLPH3] gave a protein stability index (treatment: DMSO) of 2.34 ± 0.19 and a protein stability index (treatment: MLN4924 1 uM, 8 h) of 2.27 ± 0.2.

Consider QRVKLKLWDTSGQGRFCTIFRSYS [RAB40A], for which the protein stability index is 2.3 ± 0.29 (treatment: DMSO) and 2.14 ± 0.33 (treatment: MLN4924 1 uM, 8 h).

As for QSSPSFAEKCLDFLVDMFNDEIEE [INTS4], the protein stability index by setting is: (treatment: DMSO) 2.87 ± 0.1; (treatment: MLN4924 1 uM, 8 h) 3.18 ± 0.2.

For the sequence QVADVPEKPRVPAFACQVAGCCQV [ZNF511], the protein stability index is, setting by setting: (treatment: DMSO) 3.44 ± 0.16; (treatment: MLN4924 1 uM, 8 h) 3.61 ± 0.35.

Regarding QVEIFSTNPDLYPVRRIDGLTDVS [IQUB], the protein stability index amounted to 3.71 ± 0.29 (treatment: DMSO) and 3.68 ± 0.27 (treatment: MLN4924 1 uM, 8 h).

Consider QVGRGLRYIHSMSLVHMDIKPSNI [WEE1], for which the protein stability index worked out at 2.15 ± 0.3 (treatment: DMSO) and 2.08 ± 0.25 (treatment: MLN4924 1 uM, 8 h).

With QVQLGLRCCGAASYQDWQQNLYFN [TSPAN10], the protein stability index amounted to 3.12 ± 1.1 (treatment: DMSO) and 2.81 ± 0.91 (treatment: MLN4924 1 uM, 8 h).

For QYLRLPDAPEQRLRVMTTNIRSAR [ELOA2], the protein stability index by setting is: (treatment: DMSO) 3.58 ± 0.31; (treatment: MLN4924 1 uM, 8 h) 3.9 ± 0.16.

Take QYSSHHTAEKRKRLGELFNPYYDP [CHGB]: the protein stability index is, setting by setting: (treatment: DMSO) 3.13 ± 0.25; (treatment: MLN4924 1 uM, 8 h) 3.28 ± 0.2.

As to QYTVPGTEGVTQLKLTVVEDVTVG [ZFYVE21], the protein stability index was found to be 3.86 ± 0.19 (treatment: DMSO) and 3.98 ± 0.41 (treatment: MLN4924 1 uM, 8 h).

With RAESTANAGQSDNRSLAEACSEGD [ANKRD17], the protein stability index is, setting by setting: (treatment: DMSO) 5.55 ± 0.24; (treatment: MLN4924 1 uM, 8 h) 5.53 ± 0.16.

Take RAFLQTYSHEVSLTADSRKSHLIF [PCDHGA10]: the protein stability index reads like this: (treatment: DMSO) 2.2 ± 0.34; (treatment: MLN4924 1 uM, 8 h) 2.08 ± 0.24.

On to RAKDLVELDPEVEGTKPSATEMIW [GOLPH3L], for which the protein stability index came out at 4.07 ± 0.23 (treatment: DMSO) and 4.13 ± 0.45 (treatment: MLN4924 1 uM, 8 h).
